# Assay results: US20240247063A1 (Janssen / Centocor, published 2024)
# Several values for one entry are separate records, joined by “and”; a condition that tells them apart may be missing. Identical values can stand only once.
# Legend:
# [1] = molecular target: T1, T Cell Receptor Beta Variable 17 (Vβ17) on the surface of human T cells (human); assay: flow cytometry, binding to CD8+ T cells isolated from PBMCs (only the Vβ17 non-depleted curve rises)
# T1 construct: whole, on cells; Polyclonal Vβ17+ T cells of donors; also called V 17; Vb17
# T1 sequence (A0A075B6N1 22-114): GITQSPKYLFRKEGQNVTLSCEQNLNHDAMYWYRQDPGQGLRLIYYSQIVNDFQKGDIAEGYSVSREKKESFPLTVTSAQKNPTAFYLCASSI
# [2] = molecular target: T1, T Cell Receptor Beta Variable 17 (Vβ17) …; assay: flow cytometry, CD8+ T cells from Vβ17 non-depleted PBMCs
# [3] = molecular target: T1, T Cell Receptor Beta Variable 17 (Vβ17) …; assay: flow cytometry, binding to CD8+ T cells isolated from PBMCs, donor D203517
# [4] = molecular target: T1, T Cell Receptor Beta Variable 17 (Vβ17) …; assay: flow cytometry, binding to CD8+ T cells isolated from PBMCs, donor HPU 08694
# [5] = molecular target: T1, T Cell Receptor Beta Variable 17 (Vβ17) …; assay: flow cytometry, FLU MP 58-stimulated enriched CD8+ T cells, anti-human IgG4 Fc-PE
# Protocol: Mouse anti-human IgG4 Fc-PE secondary antibody was used to detect the bispecific antibody.
# Bispecific antibody binding affinities to CD8+ T cell were determined by flow cytometry.
# [6] = molecular target: T1, T Cell Receptor Beta Variable 17 (Vβ17) …; assay: flow cytometry, binding to CD8+ T cells isolated from PBMCs, donor HPU 09381
# [7] = molecular target: T2, CD123 on Kasumi-3 AML cells (human, UniProt P26951 19-378); assay: flow cytometry, binding to Kasumi3 AML cells
# T2 construct: whole, on cells; also called interleukin-3 receptor; IL-3R
# T2 sequence (P26951 19-378): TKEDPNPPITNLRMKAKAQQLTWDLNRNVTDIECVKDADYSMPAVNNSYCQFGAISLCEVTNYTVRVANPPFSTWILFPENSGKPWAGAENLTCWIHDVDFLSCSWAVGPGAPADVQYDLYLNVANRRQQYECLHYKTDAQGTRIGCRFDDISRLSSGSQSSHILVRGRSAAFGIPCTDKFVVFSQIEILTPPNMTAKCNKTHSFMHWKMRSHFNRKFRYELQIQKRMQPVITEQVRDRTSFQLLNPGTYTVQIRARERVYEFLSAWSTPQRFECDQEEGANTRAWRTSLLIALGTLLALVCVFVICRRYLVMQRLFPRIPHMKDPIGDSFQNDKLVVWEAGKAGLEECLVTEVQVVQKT
# [8] = molecular target: T1, T Cell Receptor Beta Variable 17 (Vβ17) …; assay: flow cytometry, MFI, pan T cells of donor NHV21-07174
# Protocol: (§1) Binding assay was done with isolated Pan T cells from 2 donors. Pan T cells were isolated from Whole PBMCs. 1 μL Live dead (1:1000 diluted) and Fc Block 2 μL/well was added. 100 μL of the cell suspension was seeded in 96 well V bottom plate at 100,000 cell per well and incubated for 10 minutes at 4° C. The plate was washed by adding 190 μL FACS buffer spun at 1500 rpm for 5 minutes. 100 μL diluted test antibodies was added to the plate and the plate was incubated at 37° C. 5% CO₂ for 45 minutes. Wash step was repeated. 100 μL diluted Secondary antibody (0.5 μL/well in 100 μL FACS buffer) was added and the plate was incubated at 4° C. for 45 minutes. Wash step was repeated. 100 μL cytofix was added to the pellet and the plate was incubated at 4° C. for 10 minutes. Wash step was repeated. 100 μL FACS buffer was added to the pellet and sample was analyzed by Flow cytometry. Cells were gated on FSC/SSC, followed by live cell gating.
# [9] = molecular target: T1, T Cell Receptor Beta Variable 17 (Vβ17) …; assay: flow cytometry, % binding, pan T cells of donor NHV21-07171
# Protocol: as §1
# [10] = molecular target: T3, prostate-specific membrane antigen (PSMA) on C4-2B cells (human, UniProt Q04609 1-750); assay: flow cytometry on C4-2B cells, APC secondary antibody
# T3 construct: whole, on cells
# T3 sequence (Q04609 whole entry): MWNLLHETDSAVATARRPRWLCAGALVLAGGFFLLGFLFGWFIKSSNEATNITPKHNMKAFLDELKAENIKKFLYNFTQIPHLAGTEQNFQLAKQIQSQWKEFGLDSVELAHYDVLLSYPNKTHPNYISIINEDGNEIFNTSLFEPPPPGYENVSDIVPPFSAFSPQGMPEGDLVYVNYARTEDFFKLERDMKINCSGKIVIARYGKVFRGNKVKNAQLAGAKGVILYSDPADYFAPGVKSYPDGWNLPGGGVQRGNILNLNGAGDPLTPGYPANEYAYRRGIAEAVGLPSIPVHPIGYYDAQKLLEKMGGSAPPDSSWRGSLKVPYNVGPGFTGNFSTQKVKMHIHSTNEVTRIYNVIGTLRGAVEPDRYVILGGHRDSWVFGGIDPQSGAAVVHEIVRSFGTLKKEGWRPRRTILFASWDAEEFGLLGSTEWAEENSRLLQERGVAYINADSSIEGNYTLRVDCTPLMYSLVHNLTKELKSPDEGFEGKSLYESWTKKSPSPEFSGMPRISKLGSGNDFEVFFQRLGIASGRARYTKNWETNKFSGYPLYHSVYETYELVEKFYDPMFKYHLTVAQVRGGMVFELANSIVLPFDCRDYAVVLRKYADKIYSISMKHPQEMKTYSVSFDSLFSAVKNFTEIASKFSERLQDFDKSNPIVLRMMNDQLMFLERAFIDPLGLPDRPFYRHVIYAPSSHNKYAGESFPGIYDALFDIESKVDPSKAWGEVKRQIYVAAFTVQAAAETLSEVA
# Protocol: The C4-2B cells were centrifuged and re-suspended in DPBS and counted. 4 million cells were re-suspended in 8 mL of DPBS and 8 μL of Violet Fluorescent Dye was added and incubated for 15 min. in 4° C. Eight milliliters FACS buffer was added to neutralize mix and 200 μL per well was seeded. The plate was centrifuged and re-suspended in 100 μL of antibody dilutions accordingly and incubated for 30 min. in incubator. 10 μg/mL conc. of each antibodies were prepared in 200 μL stock and further diluted to 8 points by adding 60 μL to 120 μL of FACS serially buffer to get 3-fold dilution. 100 μL of FACS buffer were added to each well, centrifuged, re-suspended in 100 μL FACS buffer with 0.5 μL/well con. Secondary antibody tagged with APC & incubated for 30 min. 4° C. Next, 100 μL of FACS buffer was added to each well, centrifuged, re-suspended in 100 μL BD Cytofix & incubated for 10 min. 4° C. 100 μL of FACS buffer were added to each well, centrifuged, re-suspended in 100 μL FACS buffer, stored at 4° C. Data was acquired in Flow cytometer and the data was analyzed.
# [11] = molecular target: T1, T Cell Receptor Beta Variable 17 (Vβ17) …; assay: flow cytometry, % binding, pan T cells of donor NHV21-07174
# Protocol: as §1
# [12] = molecular target: T1, T Cell Receptor Beta Variable 17 (Vβ17) …; assay: flow cytometry, MFI, pan T cells of donor NHV21-07171
# Protocol: as §1
Binder,EC50 [1],EC50 (read off the curve) [2],EC50 [3],EC50 (read off the curve) [3],EC50 [4],EC50 (read off the curve) [4],EC50 [5],EC50 [6],EC50 (read off the curve) [6],binding result [7],EC50 [8],EC50 [9],EC50 [10],EC50 [11],EC50 [12]
"VB11 (anti-Vβ17/anti-CD123) bispecific antibody (bispecific antibody, human IgG4 S228P, kappa, F234A L235A) heavy 1: QVQLQESGPGLVKPSETLSLTCTVSGYSITSGYFWNWIRQPPGKGLEWIGYISYDGSNNYNPSLKSRVTISRDTSKNQFSLKLSSVTAADTAVYYCASPSPGTGYAVDYWGQGTLVTVSSASTKGPSVFPLAPCSRSTSESTAALGCLVKDYFPEPVTVSWNSGALTSGVHTFPAVLQSSGLYSLSSVVTVPSSSLGTKTYTCNVDHKPSNTKVDKRVESKYGPPCPPCPAPEAAGGPSVFLFPPKPKDTLMISRTPEVTCVVVDVSQEDPEVQFNWYVDGVEVHNAKTKPREEQFNSTYRVVSVLTVLHQDWLNGKEYKCKVSNKGLPSSIEKTISKAKGQPREPQVYTLPPSQEEMTKNQVSLSCAVKGFYPSDIAVEWESNGQPENNYKTTPPVLDSDGSFFLVSRLTVDKSRWQEGNVFSCSVMHEALHNRFTQKSLSLSLGK light 1: DIQMTQSPSSLSASVGDRVTITCRSSQSLVHSNGNTYLHWYQQKPGKAPKFLIYKVSNRFSGVPSRFSGSGSGTDFTLTISSLQPEDFATYYCSQSTHVPFTFGQGTKLEIKRTVAAPSVFIFPPSDEQLKSGTASVVCLLNNFYPREAKVQWKVDNALQSGNSQESVTEQDSKDSTYSLSSTLTLSKADYEKHKVYACEVTHQGLSSPVTKSFNRGEC heavy 2: EVQLVQSGAEVKKPGESLKISCKGSGYSFTSYWISWVRQMPGKGLEWMGIIDPSDSDTRYSPSFQGQVTISADKSISTAYLQWSSLKASDTAMYYCARGDGSTDLDYWGQGTLVTVSSASTKGPSVFPLAPCSRSTSESTAALGCLVKDYFPEPVTVSWNSGALTSGVHTFPAVLQSSGLYSLSSVVTVPSSSLGTKTYTCNVDHKPSNTKVDKRVESKYGPPCPPCPAPEAAGGPSVFLFPPKPKDTLMISRTPEVTCVVVDVSQEDPEVQFNWYVDGVEVHNAKTKPREEQFNSTYRVVSVLTVLHQDWLNGKEYKCKVSNKGLPSSIEKTISKAKGQPREPQVYTLPPSQEEMTKNQVSLWCLVKGFYPSDIAVEWESNGQPENNYKTTPPVLDSDGSFFLYSRLTVDKSRWQEGNVFSCSVMHEALHNHYTQKSLSLSLGK light 2: EIVLTQSPGTLSLSPGERATLSCRASQSVSSSYLAWYQQKPGQAPRLLIYGASSRATGIPDRFSGSGSGTDFTLTISRLEPEDFAVYYCQQDYGFPWTFGQGTKVEIKRTVAAPSVFIFPPSDEQLKSGTASVVCLLNNFYPREAKVQWKVDNALQSGNSQESVTEQDSKDSTYSLSSTLTLSKADYEKHKVYACEVTHQGLSSPVTKSFNRGEC",12.2 nM,~0.2 µg/mL,1.26 nM,~0.2 µg/mL,1.9 nM,~0.2 µg/mL,1.35 µg/mL and 9 nM,0.8 nM,~0.1 µg/mL,–,–,–,–,–,–
"VB13 (Vβ17×Null) bispecific antibody (bispecific antibody, human IgG4 S228P, kappa, F234A L235A, Knob-into-hole human IgG4; also called Vβ17XNULL; V 17 null control bispecific) heavy 1: QVQLQESGPGLVKPSETLSLTCTVSGYSITSGYFWNWIRQPPGKGLEWIGYISYDGSNNYNPSLKSRVTISRDTSKNQFSLKLSSVTAADTAVYYCASPSPGTGYAVDYWGQGTLVTVSSASTKGPSVFPLAPCSRSTSESTAALGCLVKDYFPEPVTVSWNSGALTSGVHTFPAVLQSSGLYSLSSVVTVPSSSLGTKTYTCNVDHKPSNTKVDKRVESKYGPPCPPCPAPEAAGGPSVFLFPPKPKDTLMISRTPEVTCVVVDVSQEDPEVQFNWYVDGVEVHNAKTKPREEQFNSTYRVVSVLTVLHQDWLNGKEYKCKVSNKGLPSSIEKTISKAKGQPREPQVYTLPPSQEEMTKNQVSLSCAVKGFYPSDIAVEWESNGQPENNYKTTPPVLDSDGSFFLVSRLTVDKSRWQEGNVFSCSVMHEALHNRFTQKSLSLSLGK light 1: DIQMTQSPSSLSASVGDRVTITCRSSQSLVHSNGNTYLHWYQQKPGKAPKFLIYKVSNRFSGVPSRFSGSGSGTDFTLTISSLQPEDFATYYCSQSTHVPFTFGQGTKLEIKRTVAAPSVFIFPPSDEQLKSGTASVVCLLNNFYPREAKVQWKVDNALQSGNSQESVTEQDSKDSTYSLSSTLTLSKADYEKHKVYACEVTHQGLSSPVTKSFNRGEC heavy 2: not shown light 2: not shown",12.6 nM,~0.3 µg/mL,1.4 nM,~0.2 µg/mL,1.5 nM,~0.3 µg/mL,2.8 µg/mL and 18.7 nM,1.5 nM,~0.2 µg/mL,no binding (tested: about 20 µg/mL),–,–,–,–,–
"VB17B25 (PSMB410 × B17B21-N33S) (bispecific antibody, human IgG1, kappa, L234A L235A, First chain is the PSMB410 scFv-Fc; also called Vβ17B25; Vβ17×PSMA) not shown heavy: QVQLQESGPGLVKPSETLSLTCTVSGYSITSGYFWNWIRQPPGKGLEWIGYISYDGSNNYNPSLKSRVTISRDTSKNQFSLKLSSVTAADTAVYYCASPSPGTGYAVDYWGQGTLVTVSSASTKGPSVFPLAPSSKSTSGGTAALGCLVKDYFPEPVTVSWNSGALTSGVHTFPAVLQSSGLYSLSSVVTVPSSSLGTQTYICNVNHKPSNTKVDKKVEPKSCDKTHTCPPCPAPEAAGGPSVFLFPPKPKDTLMISRTPEVTCVVVSVSHEDPEVKFNWYVDGVEVHNAKTKPREEQYNSTYRVVSVLTVLHQDWLNGKEYKCKVSNKALPAPIEKTISKAKGQPREPQVYTLPPSREEMTKNQVSLSCAVKGFYPSDIAVEWESNGQPENNYKTTPPVLDSDGSFFLVSKLTVDKSRWQQGNVFSCSVMHEALHNRFTQKSLSLSPGK light: DIQMTQSPSSLSASVGDRVTITCRSSQSLVHSSGNTYLHWYQQKPGKAPKFLIYKVSNRFSGVPSRFSGSGSGTDFTLTISSLQPEDFATYYCSQSTHVPFTFGQGTKLEIKRTVAAPSVFIFPPSDEQLKSGTASVVCLLNNFYPREAKVQWKVDNALQSGNSQESVTEQDSKDSTYSLSSTLTLSKADYEKHKVYACEVTHQGLSSPVTKSFNRGEC",–,–,–,–,–,–,–,–,–,–,~3 µg/mL,0.3 µg/mL,2.1 µg/mL,0.2 µg/mL,1.5 µg/mL
